T1: human Siglec-10 on the cell surface (human, UniProt Q96LC7 17-697)
T1 sequence (looked up): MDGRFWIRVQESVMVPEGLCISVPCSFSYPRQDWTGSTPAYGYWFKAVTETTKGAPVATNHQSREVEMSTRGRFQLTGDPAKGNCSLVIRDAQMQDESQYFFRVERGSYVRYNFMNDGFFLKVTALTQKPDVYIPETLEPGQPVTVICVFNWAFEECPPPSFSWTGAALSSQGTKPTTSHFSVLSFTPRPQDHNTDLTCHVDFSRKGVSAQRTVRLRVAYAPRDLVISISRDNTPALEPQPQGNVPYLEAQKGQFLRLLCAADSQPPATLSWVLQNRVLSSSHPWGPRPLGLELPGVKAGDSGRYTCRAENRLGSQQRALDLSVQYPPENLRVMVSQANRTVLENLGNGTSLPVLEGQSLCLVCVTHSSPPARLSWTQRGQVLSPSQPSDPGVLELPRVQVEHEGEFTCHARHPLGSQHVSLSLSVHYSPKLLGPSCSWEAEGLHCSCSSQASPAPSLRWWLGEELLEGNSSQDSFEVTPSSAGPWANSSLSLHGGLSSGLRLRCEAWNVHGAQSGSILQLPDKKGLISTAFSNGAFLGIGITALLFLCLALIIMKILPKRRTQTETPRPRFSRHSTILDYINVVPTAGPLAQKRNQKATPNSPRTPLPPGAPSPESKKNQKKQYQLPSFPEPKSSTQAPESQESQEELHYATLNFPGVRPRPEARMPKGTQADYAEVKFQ

T2: Siglec-10 (Biacore analysis) (UniProt Q96LC7 17-546, limits assumed)
T2 sequence (looked up): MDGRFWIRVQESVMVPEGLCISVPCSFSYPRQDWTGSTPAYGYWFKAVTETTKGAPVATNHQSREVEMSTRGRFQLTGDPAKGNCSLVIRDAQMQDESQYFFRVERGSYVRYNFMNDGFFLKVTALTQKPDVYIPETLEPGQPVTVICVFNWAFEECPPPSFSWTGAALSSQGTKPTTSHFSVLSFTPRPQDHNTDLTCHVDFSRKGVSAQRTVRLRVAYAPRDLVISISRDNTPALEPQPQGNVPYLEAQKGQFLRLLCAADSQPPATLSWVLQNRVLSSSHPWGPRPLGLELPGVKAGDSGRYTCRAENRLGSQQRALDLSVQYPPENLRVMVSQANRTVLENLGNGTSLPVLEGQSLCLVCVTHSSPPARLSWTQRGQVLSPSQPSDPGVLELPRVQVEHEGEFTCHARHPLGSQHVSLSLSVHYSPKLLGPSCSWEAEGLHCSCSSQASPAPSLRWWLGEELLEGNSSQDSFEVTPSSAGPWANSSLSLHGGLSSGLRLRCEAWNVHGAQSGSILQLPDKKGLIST


What was measured:
[1] = biological target: T1, human Siglec-10 on the cell surface; assay: cell-based or functional assay
[2] = biological target: human Siglec-10 extracellular domain recombinant protein (His or Fc tag) (human) (UniProt Q96LC7); assay: ELISA, Siglec protein coated, biotinylated ONC-841, avidin-HRP
[3] = biological target: human Siglec-10 extracellular domain recombinant protein (His or Fc tag) (human) (UniProt Q96LC7); assay: ELISA: Siglec-10 His coated, biotinylated ONC-841, avidin-HRP
[4] = biological target: cynomolgus Siglec-10 on the cell surface (cynomolgus); assay: flow cytometry, cynomolgus PBMC, CD14hi monocytes, without excess hIgG
Sequence of cynomolgus Siglec-10 on the cell surface (cynomolgus) (chain, as listed by the source): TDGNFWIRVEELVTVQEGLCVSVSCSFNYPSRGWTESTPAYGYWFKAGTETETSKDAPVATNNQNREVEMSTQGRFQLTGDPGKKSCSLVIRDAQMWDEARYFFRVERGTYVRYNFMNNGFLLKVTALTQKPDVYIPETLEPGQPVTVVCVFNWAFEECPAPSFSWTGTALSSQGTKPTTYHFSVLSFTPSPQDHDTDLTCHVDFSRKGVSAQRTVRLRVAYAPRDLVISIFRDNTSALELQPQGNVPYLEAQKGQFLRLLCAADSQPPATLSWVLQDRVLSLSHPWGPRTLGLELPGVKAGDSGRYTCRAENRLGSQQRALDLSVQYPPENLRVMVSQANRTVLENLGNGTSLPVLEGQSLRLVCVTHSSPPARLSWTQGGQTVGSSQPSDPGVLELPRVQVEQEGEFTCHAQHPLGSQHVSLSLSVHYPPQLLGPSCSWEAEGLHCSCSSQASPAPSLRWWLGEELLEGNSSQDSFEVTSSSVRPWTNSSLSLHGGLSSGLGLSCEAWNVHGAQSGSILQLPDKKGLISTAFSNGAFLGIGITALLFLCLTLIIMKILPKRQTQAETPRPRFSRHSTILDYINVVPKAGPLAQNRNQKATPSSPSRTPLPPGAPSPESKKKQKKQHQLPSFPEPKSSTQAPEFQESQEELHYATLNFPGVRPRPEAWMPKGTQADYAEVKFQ

[5] = biological target: T1, human Siglec-10 on the cell surface; assay: flow cytometry, human PBMC, CD14hi monocytes, without excess hIgG; FMO median 1244
[6] = biological target: T1, human Siglec-10 on the cell surface; assay: flow cytometry on live expi293 cells transfected with human Siglec-10; FMO median 14075
[7] = biological target: recombinant His-tagged human Siglec-10 (ACROBiosystems) (human) (UniProt Q96LC7); assay: ELISA: His-tagged human Siglec-10 coated, ONC-841 detected with goat anti-human antibody
[8] = biological target: rhesus Siglec-10 on expi293 cells (rhesus) (UniProt F7GW74); assay: flow cytometry on live expi293 cells transfected with rhesus Siglec-10; FMO median 13039
Sequence of rhesus Siglec-10 on expi293 cells (rhesus) (F7GW74 entry or part of it): as the sequence (chain, as listed by the source) above, with N4S, E11K, T14M, R306H, R486G, E568D, F645S counted along it

[9] = biological target: T1, human Siglec-10 on the cell surface; assay: flow cytometry, human PBMC, B cells, fluorescently labeled ONC-841 (upper left quadrant)
[10] = biological target: marmoset Siglec-10 on expi293 cells (marmoset) (UniProt F6WZ94); assay: flow cytometry on live expi293 cells transfected with marmoset Siglec-10; FMO median 13762
Sequence of marmoset Siglec-10 on expi293 cells (marmoset) (F6WZ94 entry or part of it): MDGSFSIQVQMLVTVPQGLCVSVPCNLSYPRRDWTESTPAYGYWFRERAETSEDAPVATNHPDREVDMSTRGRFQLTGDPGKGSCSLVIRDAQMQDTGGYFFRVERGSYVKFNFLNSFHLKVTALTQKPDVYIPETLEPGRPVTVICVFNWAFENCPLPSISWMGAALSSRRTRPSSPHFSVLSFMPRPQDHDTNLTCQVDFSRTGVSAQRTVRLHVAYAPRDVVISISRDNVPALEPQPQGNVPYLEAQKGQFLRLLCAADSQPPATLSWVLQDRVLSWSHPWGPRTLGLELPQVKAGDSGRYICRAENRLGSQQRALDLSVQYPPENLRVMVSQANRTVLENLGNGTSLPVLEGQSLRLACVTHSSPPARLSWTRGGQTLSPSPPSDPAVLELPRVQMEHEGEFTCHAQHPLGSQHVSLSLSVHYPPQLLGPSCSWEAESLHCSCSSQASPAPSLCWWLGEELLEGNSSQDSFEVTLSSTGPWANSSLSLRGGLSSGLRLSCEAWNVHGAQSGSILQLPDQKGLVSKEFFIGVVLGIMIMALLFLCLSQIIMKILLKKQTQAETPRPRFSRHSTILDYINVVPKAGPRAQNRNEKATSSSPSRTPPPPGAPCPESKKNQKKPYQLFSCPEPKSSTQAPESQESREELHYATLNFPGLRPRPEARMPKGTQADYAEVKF

[11] = biological target: T1, human Siglec-10 on the cell surface; assay: flow cytometry, human PBMC, monocytes, fluorescently labeled ONC-841 (upper left quadrant)
[12] = biological target: cynomolgus Siglec-10 on the cell surface (cynomolgus); assay: flow cytometry on live expi293 cells transfected with cynomolgus Siglec-10; FMO median 13824
[13] = biological target: T2, Siglec-10 (Biacore analysis); assay: Biacore
[14] = biological target: T1, human Siglec-10 on the cell surface; assay: flow cytometry, Jurkat cells expressing human Siglec-10
[15] = biological target: T2, Siglec-10 (Biacore analysis); assay: Biacore (data from a separate experiment); data from a separate experiment

EC50, ADCC reporter activity of anti-CD20 against Raji cells [1] [µg/mL]	EC50, ADCC reporter activity of cetuximab against B16 cells expressing human EGFR [1] [µg/mL]	IC50 (so in the source), ADCC reporter activity of ONC-392 against CTLA-4 expressing CHO cells [1] [µg/mL]	Kd [2] [µg/mL]	EC50 (read off the curve) [3] [µg/mL]	Median : Comp-Alexa Fluor 488-A [4]	Median : Comp-Alexa Fluor 488-A [5]	Median : Comp-APC-A [6]	EC50 (read off the curve) [7] [µg/mL]	Median : Comp-APC-A [8]	% positive cells [9] [%]	Median : Comp-APC-A [10]	% positive cells [11] [%]	Median : Comp-APC-A [12]	koff [13] [s⁻¹]	kon [13] [M⁻¹ s⁻¹]	ADCC EC50 [1] [µg/mL]	EC50 [14] [µg/mL]	Kd [15] [nM]	Kd [13] [nM]	Molecule
0.5	0.3	0.08	0.0225	0.02	1770	7250	64200	0.009	13100	51	14200	79	14500							ONC-841 (antibody)
														0.000589	272000	0.153	0.242	2.17		humanized 31F11 clone #21 (antibody, V domains shown, also called hu-VHv1VLv2) VH: QVTLKESGPALVKPTQTLTLTCTFSGFSLSTSGMGLSWIRQPPGKALEWLAHIYWDDDKRYNPSLKSRLTISKDTSKNQVVLTMTNMDPVDTATYYCVRGLYGNWFFDVWGQGTTVTVSS VL: DIVMTQSPATLSVSPGERATLSCKASQNVGTAVAWYQQKPGQAPRLLIYSASNRYTGVPARFSGSGSGTEFTLTISSLQSEDFAVYFCQQYSSYPLTFGGGTKVEIK
														0.000197	131000	0.342	0.237		1.5	humanized 31F11 clone #23 (antibody, V domains shown) VH: QVTLKESGPALVKPTQTLTLTCTFSGFSLSTSGMGLSWIRQPPGKALEWLAHIYWDDDKRYNPSLKSRLTISKDTSKNQVVLTMTNMDPVDTATYYCARGLYGNWFFDVWGQGTTVTVSS VL: DIVMTQSPATLSVSPGERATLSCKASQNVGTAVAWYQQKPGQAPRLLIYSASNRYTGVPARFSGSGSGTEFTLTISSLQSEDFAVYFCQQYSSYPLTFGGGTKVEIK
														0.000202	164000	0.266	0.237		1.23	humanized 31F11 clone #22 (antibody, V domains shown, also called hu-VHv2VLv2) VH: QVTLKESGPALVKPTQTLTLTCTFSGFSLSTSGMGLSWIRQPPGKALEWLAHIYWDDDKRYNPSLKSRLTISKDTSKNQVVLTMTNMDPVDTATYYCVRGLYGNWFFDVWGAGTTVTVSS VL: DIVMTQSPATLSVSPGERATLSCKASQNVGTAVAWYQQKPGQAPRLLIYSASNRYTGVPARFSGSGSGTEFTLTISSLQSEDFAVYFCQQYSSYPLTFGGGTKVEIK

— patent US20240218067A1 (ONCOC4, published 2024)
